The results in this text go back to US20090246142.

For data set [1], the system named is T1, TAMRA-(Ahx)SRVGEEEHVYSFPNKQKSAEC-CONH2 (unphosphorylated Abl substrate derived from paxillin) on nanoparticles (Y-Abl TSACs).
T1 sequence: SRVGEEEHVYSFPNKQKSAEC

The subject of data set [2] is MMP-2 substrate G-K(TAMRA)-G-P-L-G-V-R-G-C-CONH2 with 20 kDa PEG, on ligand (biotin) TSACs (Example 3).
In data set [3] the test system is MMP-2 cleavable peptide substrate KGPLGVRGC, PEG on the lysine, on biotin and NeutrAvidin nanoparticles (Example 1).
Data set [4] has as its system MMP-7 substrate G-K(TAMRA)-G-V-P-L-S-L-T-M-G-C-CONH2 with 20 kDa PEG, on receptor (NeutrAvidin) TSACs (Example 3).
In data set [5] the test system is MMP-7-MMP-2 tandem substrate TAMRA-G-K-G-V-P-L-S-L-T-M-Ahx-G-P-L-G-V-R-G-C-CONH2 with 20 kDa PEG, on ligand (biotin) TSACs (Example 3).

Chain of recombinant catalytic domain of matrix metalloproteinase-2 (MMP-2; Biomol) (chain, as listed by the source): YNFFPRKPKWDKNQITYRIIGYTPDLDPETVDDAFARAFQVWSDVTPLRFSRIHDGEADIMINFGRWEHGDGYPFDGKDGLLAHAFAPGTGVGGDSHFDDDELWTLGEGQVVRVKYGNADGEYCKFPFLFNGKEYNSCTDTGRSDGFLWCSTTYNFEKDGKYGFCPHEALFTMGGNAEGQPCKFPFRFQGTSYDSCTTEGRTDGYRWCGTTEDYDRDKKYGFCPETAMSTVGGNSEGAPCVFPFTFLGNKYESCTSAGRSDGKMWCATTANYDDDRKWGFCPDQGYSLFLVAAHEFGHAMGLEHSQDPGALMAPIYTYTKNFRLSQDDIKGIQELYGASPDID

For Abl kinase (New England Biolabs), in data set [1], the “TSAC assembly in DLS (hydrodynamic radius)” value is reported as “Abl kinase rapidly directed assembly in solutions containing Y-Abl TSACs with SH2 TSACs” and the “lowest kinase amount giving quantifiable T2 relaxation enhancement (MRI)” value was “as little as 11 fentomoles of added kinase (110 pM kinase concentrations=0.05 U/µl”.

For “recombinant catalytic domain of matrix metalloproteinase-2 (MMP-2; Biomol)”, the “TSAC assembly in DLS” value in data set [2] was “Addition of 0.4 µg MMP-2 actuates TSAC assembly, while 0.4 µg MMP-7 or no enzyme is insufficient”. In addition, in data set [3], the “TSAC assembly (extinction at 600 nm, AFM)” value is recorded as “The TSACs with the scrambled peptide exhibit markedly decreased assembly compared to the specific peptide sequence” and the “lowest MMP-2 concentration detected by T2 relaxation (MRI)” value is listed as “TSACs at a 10 pM concentration were sensitive to at least 170 ng/ml (9.4 U/ml) of MMP-2”. Also, the “TSAC assembly in DLS” value in data set [4] was “addition of 0.4 µg MMP-7 induces assembly, while 0.4 µg MMP-2 cannot”. Also, the “hydrodynamic radius increase in DLS” value in data set [5] is listed as “Hydrodynamic radii increased more than 5-fold in the presence of either enzyme or both enzymes”.
